Measurements taken from patent publication US20240352155A1 (CHIMAGEN BIOSCIENCES, published 2024).
Like-named read-outs stand apart in the source and are kept apart here.

T1: human CD19 antigen (human, UniProt P15391 20-291)
T1 sequence (looked up): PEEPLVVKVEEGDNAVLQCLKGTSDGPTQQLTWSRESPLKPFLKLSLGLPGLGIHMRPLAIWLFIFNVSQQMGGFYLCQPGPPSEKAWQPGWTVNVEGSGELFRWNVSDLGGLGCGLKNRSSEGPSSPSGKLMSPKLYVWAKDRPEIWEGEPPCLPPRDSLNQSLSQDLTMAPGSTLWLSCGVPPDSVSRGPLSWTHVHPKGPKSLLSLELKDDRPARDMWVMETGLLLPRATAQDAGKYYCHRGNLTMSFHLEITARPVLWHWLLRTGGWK

T2: CD20 (stably transfected into K562 cells) (UniProt P11836 1-297, limits assumed)
T2 sequence (looked up): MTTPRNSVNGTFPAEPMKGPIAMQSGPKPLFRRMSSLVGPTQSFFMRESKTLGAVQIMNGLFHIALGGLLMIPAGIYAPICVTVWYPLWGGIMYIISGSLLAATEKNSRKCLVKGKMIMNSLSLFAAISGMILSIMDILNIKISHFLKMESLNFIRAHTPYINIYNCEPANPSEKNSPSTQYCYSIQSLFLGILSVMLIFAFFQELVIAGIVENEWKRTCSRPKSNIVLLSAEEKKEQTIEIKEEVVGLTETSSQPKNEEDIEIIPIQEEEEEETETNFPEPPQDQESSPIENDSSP

B1: CD3XCD19 bispecific antibody (antibody A) (bispecific antibody)
chain 1: EIVLTQSPATLSVTPGERATLSCSASSSVSYMHWYQKKPGQAPRLLIYDTSKLASGIPARFSGSGSGTDFTLTISSLEPEDFAVYYCFQGSVYPFTFGCGTKLEIKRTVAAEVQLVESGGGLVQPGGSLRLSCAASGFTFNTYAMNWVRKAPGKGLEWVGRIRSKYNNYATYYADSVDKGRFTISRDDSKNSLYLQMNSLKTEDTAVYYCVRHGNFGNSYVSWFAYWGQGTLVTVSS
chain 2: EAVVTQEPSLTVSPGGTVTLTCRSSTGAVTTSNYANWVQDKPGQAPRGLIGGTNKRAPWTPARFSGSLLGGKAALTITGAQPEDEAEYYCALWYSNLWVFGGGTKLTVLRTVAAQVQLQESGPGLVKPSQTLSLTCTVSGGSISTSGMGVGWIRDHPGKCLEWIGHIWWDDDKRYNPALKSRVTISVDTSKNQFSLKLSSVTAADTAVYYCARMELWSYYFDYWGQGTTLTVSSASEPKSDKTHTCPPCPAPPVAGGPSVFLFPPKPKDTLMISRTPEVTCVVVDVSQEDPEVKFNWYVDGVEVHNAKTKPREEQFNSTYRVVSVLTVLHQDWLNGKEYKCKVSNKGLPSSIEKTISKAKGQPREPQVYTLPPCRDELTKNQVSLWCLVKGFYPSDIAVEWESNGQPENNYKTTPPVLDSDGSFFLYSKLTVDKSRWQQGNVFSCSVMHEALHNHYTQKSLSLSPGK
chain 3: DKTHTCPPCPAPPVAGGPSVFLFPPKPKDTLMISRTPEVTCVVVDVSQEDPEVKFNWYVDGVEVHNAKTKPREEQFNSTYRVVSVLTVLHQDWLNGKEYKCKVSNKGLPSSIEKTISKAKGQPREPQVCTLPPSRDELTKNQVSLSCAVKGFYPSDIAVEWESNGQPENNYKTTPPVLDSDGSFFLVSKLTVDKSRWQQGNVFSCSVMHEALHNRFTQKSLSLSPGK
notes: Three-polypeptide bispecific made in CHO3E7 cells; The description speaks of a disulfide bond between CD19 VL and VH, charge substitutions and a knob-in-hole Fc
B2: CD3XCD19XCD20 tri-specific antibody (antibody #1) (other)
chain 1: EIVLTQSPATLSVTPGERATLSCSASSSVSYMHWYQKKPGQAPRLLIYDTSKLASGIPARFSGSGSGTDFTLTISSLEPEDFAVYYCFQGSVYPFTFGCGTKLEIKRTVAAEVQLVESGGGLVQPGGSLRLSCAASGFTFSTYAMNWVRQAPGKGLEWVGRIRSKYNNYATYYADSVKGRFTISRDDSKNSLYLQMNSLRAEDTAVYYCVRHGNFGNSYVSWFAYWGQGTLVTVSS
chain 2: QAVVTQEPSLTVSPGGTVTLTCRSSTGAVTTSNYANWVQQKPGQAPRGLIGGTNKRAPWTPARFSGSLLGGKAALTLSGAQAEDEADYYCALWYSNLWVFGGGTKLTVLRTVAAQVQLQESGPGLVKPSQTLSLTCTVSGGSISTSGMGVGWIRDHPGKCLEWIGHIWWDDDKRYNPALKSRVTISVDTSKNQFSLKLSSVTAADTAVYYCARMELWSYYFDYWGQGTTLTVSSASEPKSSDKTHTCPPCPAPPVAGPSVFLFPPKPKDTLMISRTPEVTCVVVDVSQEDPEVKFNWYVDGVEVHNAKTKPREEQFNSTYRVVSVLTVLHQDWLNGKEYKCKVSNKGLPSSIEKTISKAKGQPREPQVYTLPPSRDELTKNQVSLWCLVKGFYPSDIAVEWESNGQPENNYKTTPPVLDSDGSFFLYSKLTVDKSRWQQGNVFSCSVMHEALHNHYTQKSLSLSP
heavy: QVQLVQSGAEVKKPGSSVKVSCKASGYAFSYSWINWVRQAPGQGLEWMGRIFPGDGDTDYNGKFKGRVTITADKSTSTAYMELSSLRSEDTAVYYCARNVFDGYWLVYWGQGTLVTVSSASTKGPSVFPLAPSSKSTSGGTAALGCLVKDYFPEPVTVSWNSGALTSGVHTFPAVLQSSGLYSLSSVVTVPSSSLGTQTYICNVNHKPSNTKVDKKVEPKSCDKTHTCPPCPAPPVAGPSVFLFPPKPKDTLMISRTPEVTCVVVDVSQEDPEVKFNWYVDGVEVHNAKTKPREEQFNSTYRVVSVLTVLHQDWLNGKEYKCKVSNKGLPSSIEKTISKAKGQPREPQVYTLPPSRDELTKNQVSLSCAVKGFYPSDIAVEWESNGQPENNYKTTPPVLDSDGSFFLVSKLTVDKSRWQQGNVFSCSVMHEALHNRFTQKSLSLSP
light: DIVMTQTPLSLPVTPGEPASISCRSSKSLLHSNGITYLYWYLQKPGQSPQLLIYQMSNLVSGVPDRFSGSGSGTDFTLKISRVEAEDVGVYYCAQNLELPYTFGGGTKVEIKRTVAAPSVFIFPPSDEQLKSGTASVVCLLNNFYPREAKVQWKVDNALQSGNSQESVTEQDSKDSTYSLSSTLTLSKADYEKHKVYACEVTHQGLSSPVTKSFNRGEC
notes: Tri-specific antibody of four polypeptide chains

Columns and labels:
[1] = biological target: T1, human CD19 antigen; experiment: BIAcore (SPR), CD19 captured on anti-His chip, antibody injected at 5 concentrations
[2] = biological target: T3, human CD3ε antigen (human, UniProt P07766 23-126); experiment: BIAcore (SPR), antigen immobilized on chip, antibody injected at 5 concentrations
T3 construct: Immobilized on the BIAcore chip; The construct (tag, limits) is not described

[3] = biological target: T3, human CD3ε antigen; experiment: as above; remark: listed apart in the source
[4] = biological target: T2, CD20 (stably transfected into K562 …); experiment: cell-based or functional assay
[5] = biological target: T1, human CD19 antigen; experiment: BIAcore (SPR), CD19 captured on anti-His chip, antibody injected at 5 concentrations; remark: listed apart in the source

T3 sequence (P07766 23-126): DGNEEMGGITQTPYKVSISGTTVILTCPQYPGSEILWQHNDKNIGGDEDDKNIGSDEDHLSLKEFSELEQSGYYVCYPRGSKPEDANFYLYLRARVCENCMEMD

Row | Binder | Kd [1] [nM] | koff [1] [s⁻¹] | kon [1] [M⁻¹ s⁻¹] | Kd [2] [nM] | koff [2] [s⁻¹] | kon [2] [M⁻¹ s⁻¹] | Kd [3] [nM] | koff [3] [s⁻¹] | kon [3] [M⁻¹ s⁻¹] | EC50 of killing of K562-CD20 target cells by PBMC effector cells (absorbance at OD490) [4] [nM] | Kd [5] [nM] | koff [5] [s⁻¹] | kon [5] [M⁻¹ s⁻¹]
1 | B1 | 1.83 | 0.000669 | 365000 | 31.4 | 0.0153 | 488000 | – | – | – | – | – | – | –
2 | B2 | – | – | – | – | – | – | 25 | 0.00835 | 334000 | 0.00122 | 1.32 | 0.000273 | 207000
